One assay has as its system GST-ZZ122-175^N132D. The assay is described as follows: GST-ZZ122-175^N132D pulldown from HeLa lysates (MG132 plus TG). Format: binding, human. The settings on record: HeLa lysate, immunoblot. The text has this: Using these lysates and purified GST tagged ZZ122-175^N132D (Supplementary Fig. 4A) immobilized on glutathione resin, we performed pulldown assays. […] In addition to pulling down R-BiP and R-CRT, GST-ZZ122-175^N132D was able to capture polyubiquitinated proteins, which were also disrupted by the D129A mutation and RA dipeptide competition (Supplementary Fig. 4B). This was expected because arginylated proteins are known to be ubiquitinated by E3 ligases containing a UBR box leading to their proteasomal degradation.
Fig. 4 ZZ122-175 ^N132D is capable of capturing known arginylated proteins in cells. a Western blot analysis to visualize arginylated BiP and CRT. […] N-terminally arginylated BiP and CRT were detected by immunoblotting using anti R-BiP and R-CRT antibodies. b GST pulldown assays to test the ability of wild type (WT) and N132D GST-ZZ in capturing cellular R-BiP and R-CRT. […] Pulled down R-BiP and R-CRT were detected using anti R-BiP and R-CRT antibodies. c Schematic drawing illustrating R-catcher. […] R-catcher bound arginylated proteins were detected by immunoblotting using anti-Myc or Flag antibody. e R-catcher pulldown assay to capture R-BiP and R-CRT induced in HeLa cells stimulated with MG132 plus TG in the absence or presence of 20 mM dipeptides TEXT PRINTED IN THE PICTURE: (C) R-catcher: ~ 9 kDa

The next assay relates to R-catcher. The experiment in a line: Small-scale R-catcher pulldown of known arginylated proteins. Format: binding, human. The settings on record: HeLa, MG132 plus TG, Fig. 4e. The procedure:
For small-scale R-catcher pull-down assays, 300 µg of purified R-catcher was conjugated with 120 µl of Strep-Tactin sepharose resin by incubating overnight at 4 °C. To test R-catcher’s ability to capture known arginylated proteins, such as R-BiP, R-PDI, R-nsP4 and R-RGS4, plasmids encoding Ub-X-(BiP, PDI and nsP4) or MX-RGS4 (X = Arg or Val) were transiently transfected into HEK293 cells. After 24 h, cells were treated with 10 µM MG132 and 100 nM thapsigargin for another 24 h. Cells were harvested and lysed in hypotonic buffer and 300 µg total protein was incubate with 25 µl R-catcher-sepharose resin in binding buffer (20 mM HEPES pH 7.9, 0.05% Tween 20, 10% glycerol, 0.2 M KCl, protease inhibitor and phosphatase inhibitor) for 3 h with gentle rotation at 4 °C. After three washes with binding buffer, bound proteins were dissociated with 2 × SDS sample buffer and boiling at 100 °C and subjected to immunoblotting using anti-myc or flag antibodies.

In assay [1] the test system is HeLa cell extracts stimulated with MG132 plus TG. The assay is described as follows: Large-scale R-catcher pulldown coupled to silver staining and LC-MS/MS. The settings on record: LC-MS/MS working list. Further details: species or system human. The procedure:
For large-scale R-catcher pulldown assays, HeLa cells were treated with 5 µM MG132 and 100 nM thapsigargin for 24 h. Cells were lysed in hypotonic buffer and 10 mg total was incubated with 750 µl R-catcher-sepharose beads for 3 h at 4 °C after pre-clearing with D129A mutant R-catcher-sepharose beads for 3 h at 4 °C. After three washes with binding buffer, bound proteins were eluted with binding buffer containing 20 mM D-biotin. To remove R-catcher, the eluent was dialyzed using 20 kDa cut-off dialysis membrane in binding buffer containing 3.5 M MgCl2 overnight followed by another overnight dialysis in distilled-deionized water. The dialyzed eluent was lyophilized overnight and dried powder was dissolved in 100 µl LC/MS solubilizer for silver staining and mass spectrometry analysis.
Protein samples solubilized in Invitrosol LC/MS solubilizer (Invitrogen) as following by manufacturer protocol. For removal of incompatible buffer components, protein samples filtrate with 10 K MW ultrafilter for complete digestion. […]
Peptides were analyzed using a LC–MS/MS system consisting of an Easy nLC 1000 (Thermo Fisher scientific) and an Orbitrap Fusion Lumos mass spectrometer (Thermo Fisher Scientific) equipped with a nano-electrospray source (EASY-Spray Sources, Thermo Fisher Scientific). […]
MS/MS spectra were analyzed using the following software analysis protocols with the Uniprot human DB (2019). […]

B1: R-CRT: Nt-arginylated CRT (protein)
chain: REPAVYFKEQFLDGDGWTSRWIESKHKSDFGKFVLSSGKFYGDEEKDKGLQTSQDARFYALSASFEPFSNKGQTLVVQFTVKHEQNIDCGGGYVKLFPNSLDQTDMHGDSEYNIMFGPDICGPGTKKVHVIFNYKGKNVLINKDIRCKDDEFTHLYTLIVRPDNTYEVKIDNSQVESGSLEDDWDFLPPKKIKDPDASKPEDWDERAKIDDPTDSKPEDWDKPEHIPDPDAKKPEDWDEEMDGEWEPPVIQNPEYKGEWKPRQIDNPDYKGTWIHPEIDNPEYSPDPSIYAYDNFGVLGLDLWQVKSGTIFDNFLITNDEAYAEEFGNETWGVTKAAEKQMKDKQDEEQRLKEEEEDKKRKEEEEAEDKEDDEDKDEDEEDEEDKEEDEEEDVPGQAKDEL
Turning to B1, the “pulldown by GST-ZZ122-175^N132D” value in the assay with GST-ZZ122-175^N132D is “efficiently pull down”.

B2: CRT: ER chaperone calreticulin, arginylated (protein)
chain: REPAVYFKEQFLDGDGWTSRWIESKHKSDFGKFVLSSGKFYGDEEKDKGLQTSQDARFYALSASFEPFSNKGQTLVVQFTVKHEQNIDCGGGYVKLFPNSLDQTDMHGDSEYNIMFGPDICGPGTKKVHVIFNYKGKNVLINKDIRCKDDEFTHLYTLIVRPDNTYEVKIDNSQVESGSLEDDWDFLPPKKIKDPDASKPEDWDERAKIDDPTDSKPEDWDKPEHIPDPDAKKPEDWDEEMDGEWEPPVIQNPEYKGEWKPRQIDNPDYKGTWIHPEIDNPEYSPDPSIYAYDNFGVLGLDLWQVKSGTIFDNFLITNDEAYAEEFGNETWGVTKAAEKQMKDKQDEEQRLKEEEEDKKRKEEEEAEDKEDDEDKDEDEEDEEDKEEDEEEDVPGQAKDEL
Take B2: the “pulldown by R-catcher, endogenous” value with R-catcher was “could pulldown”. In addition, in assay [1], the “presence in R-catcher working list” value is given as “among the known arginylated proteins”.

Values taken from article PMC8038991, “R-catcher, a potent molecular tool to unveil the arginylome” (Cellular and Molecular Life Sciences: CMLS, 2021).
